What was measured:
Experiment in all cases: SPR
human IFN-α4 = target: T1, human IFN-α4 (human, UniProt P05014 24-189)
T1 chain: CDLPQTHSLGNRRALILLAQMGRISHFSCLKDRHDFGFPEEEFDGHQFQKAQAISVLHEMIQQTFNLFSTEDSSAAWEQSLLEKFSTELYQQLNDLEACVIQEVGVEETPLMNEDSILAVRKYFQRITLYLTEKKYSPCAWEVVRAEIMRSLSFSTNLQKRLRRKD

human IFN-α14 = target: T2, human IFN-α14 (human, UniProt P01570 24-189)
T2 chain: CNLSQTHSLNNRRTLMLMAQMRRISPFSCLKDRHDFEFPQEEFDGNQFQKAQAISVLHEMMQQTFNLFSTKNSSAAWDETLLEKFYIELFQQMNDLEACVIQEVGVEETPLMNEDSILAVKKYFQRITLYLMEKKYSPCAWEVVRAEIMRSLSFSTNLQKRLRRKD

human IFN-ω = human IFN-ω (human, UniProt P05000 24-195)
Chain of human IFN-ω (P05000 24-195): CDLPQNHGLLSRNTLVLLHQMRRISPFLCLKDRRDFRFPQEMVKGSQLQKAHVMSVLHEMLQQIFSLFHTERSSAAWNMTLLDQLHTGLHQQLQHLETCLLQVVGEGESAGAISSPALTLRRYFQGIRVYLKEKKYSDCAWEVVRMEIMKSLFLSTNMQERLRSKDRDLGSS

B1: 26B9 (antibody, V domains shown)
VH: QILLQESGPGLVKPTETLSLTCSVSGDSISDSSHYWAWIRQPPGKGPEWIGSVYFSSMTHYNPSLKSRVSISVDKPKNQFSLKVTSVTVADTATYYCARQALARVGAMNWFDPWGQGSLVTVSS
VL: DIIMTQSPDSLPVSLGEGVTINCKSSQSVFFTSSNKSCLAWYQQKPGKSPKLLIYWASTRQSGVPDRFRGSGSGTDFSLTITSLQAEDVAVYFCQQCQTSPPTFGGGTRLEIKR
Question: B1 was tested. Which Kd (human IFN-α4) did it give?
Answer: 0.0375 pM

Question: What about the Kd (human IFN-α14) of the same binder?
Answer: 0.0328 pM

Question: What about the Kd (human IFN-ω) of the same binder?
Answer: 0.125 pM

From US20190071499A1 (published 2019)
